Legend:
[1] = molecular target: FUS^N-FusionRed-Cry2olig-VioE; experiment: cell-based or functional assay
[2] = molecular target: FUS^N-Citrine-PixE-VioE; experiment: cell-based or functional assay

Sequence of FUS^N-FusionRed-Cry2olig-VioE (Q96524 other isoform, or with tags, fused parts or gaps): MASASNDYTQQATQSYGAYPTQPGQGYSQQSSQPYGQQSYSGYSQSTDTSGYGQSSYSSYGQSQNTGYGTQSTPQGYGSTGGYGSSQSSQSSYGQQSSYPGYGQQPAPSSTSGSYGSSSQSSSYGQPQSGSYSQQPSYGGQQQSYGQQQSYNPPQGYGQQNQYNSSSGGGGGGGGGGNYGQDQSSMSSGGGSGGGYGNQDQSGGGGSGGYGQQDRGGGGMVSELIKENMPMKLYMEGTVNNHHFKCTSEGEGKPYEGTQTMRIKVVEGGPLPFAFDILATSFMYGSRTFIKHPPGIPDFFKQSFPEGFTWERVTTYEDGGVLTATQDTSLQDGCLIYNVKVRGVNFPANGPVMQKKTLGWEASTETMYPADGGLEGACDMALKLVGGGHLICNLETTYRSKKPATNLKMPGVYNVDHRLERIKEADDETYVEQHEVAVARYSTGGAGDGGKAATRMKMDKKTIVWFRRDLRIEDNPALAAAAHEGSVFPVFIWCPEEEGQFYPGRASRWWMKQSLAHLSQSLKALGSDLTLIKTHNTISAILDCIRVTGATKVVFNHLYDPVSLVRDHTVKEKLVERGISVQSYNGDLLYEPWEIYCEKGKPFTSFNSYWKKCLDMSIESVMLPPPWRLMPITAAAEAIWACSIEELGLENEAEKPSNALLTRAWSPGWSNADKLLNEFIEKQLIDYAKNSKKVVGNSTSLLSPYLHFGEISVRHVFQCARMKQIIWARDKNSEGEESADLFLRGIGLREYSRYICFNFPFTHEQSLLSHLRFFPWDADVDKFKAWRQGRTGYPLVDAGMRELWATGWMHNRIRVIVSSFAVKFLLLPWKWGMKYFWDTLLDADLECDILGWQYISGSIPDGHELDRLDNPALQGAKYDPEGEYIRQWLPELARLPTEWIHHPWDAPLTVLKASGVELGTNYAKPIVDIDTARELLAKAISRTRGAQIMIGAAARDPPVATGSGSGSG
Sequence of VioC-FUS^N-Citrine-Cry2olig (Q9S3U9 1-429, tags or fused parts left off): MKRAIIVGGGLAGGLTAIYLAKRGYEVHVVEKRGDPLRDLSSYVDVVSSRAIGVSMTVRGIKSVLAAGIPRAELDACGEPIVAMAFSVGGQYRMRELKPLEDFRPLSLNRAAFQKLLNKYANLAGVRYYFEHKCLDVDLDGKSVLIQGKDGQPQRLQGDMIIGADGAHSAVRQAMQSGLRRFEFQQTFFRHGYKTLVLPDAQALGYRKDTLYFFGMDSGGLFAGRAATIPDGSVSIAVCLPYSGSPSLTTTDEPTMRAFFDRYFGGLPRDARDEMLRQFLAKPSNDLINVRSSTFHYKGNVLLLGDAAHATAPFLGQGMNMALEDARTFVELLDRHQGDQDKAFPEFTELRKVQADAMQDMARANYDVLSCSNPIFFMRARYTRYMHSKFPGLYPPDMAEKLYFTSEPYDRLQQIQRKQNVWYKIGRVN
Sequence of FUS^N-Citrine-Cry2olig-VioC (P35637 1-214, tags or fused parts left off): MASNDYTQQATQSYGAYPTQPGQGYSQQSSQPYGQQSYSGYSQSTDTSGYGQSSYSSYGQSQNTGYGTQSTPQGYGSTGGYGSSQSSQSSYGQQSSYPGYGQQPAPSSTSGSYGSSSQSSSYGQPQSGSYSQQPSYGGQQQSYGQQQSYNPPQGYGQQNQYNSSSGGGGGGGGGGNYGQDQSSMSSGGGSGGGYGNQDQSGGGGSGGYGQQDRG

## FUS^N-Citrine-Cry2olig-VioC (from UniProt P35637 1-214; Q96524 1-498; Q9S3U9 1-429)
[1]
  deoxyviolacein production under continuous blue light relative to dark (HPLC, strain YNS34): 2 fold

## FUS^N-FusionRed-PixD-VioC (from UniProt Q9S3U9 1-429)
[2]
  change in deoxyviolacein production from light to dark (HPLC, strain YEZ257, [Zeo]max 1,200 mg/L): 6.1 fold
  change in deoxyviolacein-to-PDV ratio from light to dark (HPLC, strain YEZ257, [Zeo]max 1,200 mg/L): 18.4 fold

## VioC-FUS^N-Citrine-Cry2olig (from UniProt Q9S3U9 1-429; P35637 1-214; Q96524 1-498)
[1]
  deoxyviolacein production under continuous blue light relative to dark (HPLC, strain YNS36): 2 fold
